Patent publication US20230331809A1 (Zymeworks, published 2023)
Read-outs that look alike come from different tables or passages of the source.

Key:
[1] = target: T1, CD3 (Cluster of Differentiation 3) on Jurkat cells and on pan T cells (human, UniProt P07766 23-207); assay: flow cytometry on human pan T cells, uPa-treated sample
T1 construct: whole, on cells

[2] = target: T2, PD-L1 (Programmed death-ligand 1) on cells (UniProt Q9NZQ7 19-290); assay: flow cytometry on PD-L1 transfected CHO-S cells, MFI; # Bmax constrained to value of v31929
T2 construct: whole, on cells

[3] = target: T2, PD-L1 (Programmed death-ligand 1) on …; assay: flow cytometry on PD-L1 transfected CHO-S cells, uPa-treated sample
[4] = target: T1, CD3 (Cluster of Differentiation 3) on …; assay: cell ELISA on Jurkat cells (CD3), OD450; EC50 relative to v30421
[5] = target: T1, CD3 (Cluster of Differentiation 3) on …; assay: as above; remark: listed apart in the source
[6] = target: T1, CD3 (Cluster of Differentiation 3) on …; assay: flow cytometry on pan T cells (CD3), MFI
[7] = target: T1, CD3 (Cluster of Differentiation 3) on …; assay: cell ELISA on Jurkat cells (CD3), OD450
[8] = target: T1, CD3 (Cluster of Differentiation 3) on …; assay: cell ELISA on Jurkat cells (CD3), OD450; remark: listed apart in the source
[9] = target: T3, CD40 (Cluster of Differentiation 40) on cells (UniProt P25942 21-277, limits assumed); assay: cell-based or functional assay
[10] = target: T3, CD40 (Cluster of Differentiation 40) on …; assay: flow cytometry on Raji cells (CD40), MFI
[11] = target: T3, CD40 (Cluster of Differentiation 40) on …; assay: flow cytometry on Raji cells (CD40), MFI; sample treated with uPa; EC50 relative to v32477 -uPa
[12] = target: T3, CD40 (Cluster of Differentiation 40) on …; assay: flow cytometry on Raji cells (CD40), MFI; sample treated with uPa (variant has no cleavage site)
[13] = target: T3, CD40 (Cluster of Differentiation 40) on …; assay: flow cytometry on Raji cells, samples with and without uPa
[14] = target: T1, CD3 (Cluster of Differentiation 3) on …; assay: cell ELISA on CD3-bearing Jurkat cells, sample without uPa
[15] = target: T3, CD40 (Cluster of Differentiation 40) on …; assay: cell-based or functional assay; remark: listed apart in the source
[16] = target: T3, CD40 (Cluster of Differentiation 40) on …; assay: flow cytometry on Raji cells, sample without uPa
[17] = target: T2, PD-L1 (Programmed death-ligand 1) on …; assay: flow cytometry on PD-L1 transfected CHO-S cells, sample without uPa
[18] = target: T4, PD-1 (Programmed Cell Death Protein 1) on cells (UniProt Q15116 25-288); assay: flow cytometry on PD-1 transfected CHO-S cells, MFI; * poor fit
T4 construct: whole, on cells

[19] = target: T4, PD-1 (Programmed Cell Death Protein 1) …; assay: flow cytometry on PD-1 transfected CHO-S cells (direct binding; the filing prints IC50)
[20] = target: T4, PD-1 (Programmed Cell Death Protein 1) …; assay: flow cytometry on PD-1 transfected CHO-S cells, MFI
[21] = target: T4, PD-1 (Programmed Cell Death Protein 1) …; assay: flow cytometry on PD-1 transfected CHO-S cells, MFI; reference sample
[22] = target: T4, PD-1 (Programmed Cell Death Protein 1) …; assay: flow cytometry on PD-1 transfected CHO-S cells, MFI; # Bmax constrained (footnote prints: to value of v31929)
[23] = target: T4, PD-1 (Programmed Cell Death Protein 1) …; assay: flow cytometry on PD-1 transfected CHO-S cells, uPa-treated sample

B1: Variant 30430 treated with uPa (+uPa): PD-L1 moiety cleaved from the light chain, HA PD-1 left on the heavy chain (bispecific antibody)
chain 1: not shown
chain 2: SANADIQMTQSPSSLSASVGDRVTMTCSASSSVSYMNWYQQKPGKAPKRWIYDSSKLASGVPARFSGSGSGTDYTLTISSLQPEDFATYYCQQWSRNPPTFGGGTKLQITRTVAAPSVFIFPPSDEQLKSGTASVVCLLNNFYPREAKVQWKVDNALQSGNSQESVTEQDSKDSTYSLSSTLTLSKADYEKHKVYACEVTHQGLSSPVTKSFNRGEC
chain 3: not shown
fold of the unmasked control after uPa treatment [1]: 29 fold
EC50 [2]: 18 nM
fold of the one-sided mask control 31929 [3]: 53 fold
Fold wrt WT [4]: 5.5 fold
Fold wrt WT [5]: 5.5 fold
EC50 [6]: 67 nM
EC50 [7]: 6.7 nM
EC50 [8]: 6.7 nM

B2: Variant 32477: Unmasked aCD40 mAb (antibody, human IgG1, kappa)
heavy: not shown
light: DIQMTQSPSSVSASVGDRVTITCRASQGIYSWLAWYQQKPGKAPNLLIYTASTLQSGVPSRFSGSGSGTDFTLTISSLQPEDFATYYCQQANIFPLTFGGGTKVEIKRTVAAPSVFIFPPSDEQLKSGTASVVCLLNNFYPREAKVQWKVDNALQSGNSQESVTEQDSKDSTYSLSSTLTLSKADYEKHKVYACEVTHQGLSSPVTKSFNRGEC
notes: also called v32477
EC50, CD40 RGA, FcgRIIB CHOK1 (sample v32477 + uPa) [9]: 0.03 µg/mL
EC50, CD40 RGA, FcgRIIB CHOK1 (sample v32477 - uPa) [9]: 0.05 µg/mL
EC50, CD40 RGA, HEK Blue only (sample v32477 + uPa) [9]: 0.13 µg/mL
EC50, CD40 RGA, HEK Blue only (sample v32477 - uPa) [9]: 0.15 µg/mL
EC50, CD40 RGA, WT CHOK1 (sample v32477 + uPa) [9]: 0.1 µg/mL
EC50, CD40 RGA, WT CHOK1 (sample v32477 - uPa) [9]: 0.14 µg/mL
Fold wrt WT (EC50), CD40 RGA, FcgRIIB CHOK1 (sample v32477 + uPa) [9]: 0.71 fold
Fold wrt WT (EC50), CD40 RGA, HEK Blue only (sample v32477 + uPa) [9]: 0.86 fold
Fold wrt WT (EC50), CD40 RGA, WT CHOK1 (sample v32477 + uPa) [9]: 0.75 fold
EC50 [10]: 0.98 nM
Fold wrt WT [11]: 0.96 fold
EC50 [12]: 0.94 nM
EC50 [13]: 1 nM

B3: Variant 30444: WT CTLA4:WT CD80 masked CD3 × Her2 Fab × scFv Fc, CTLA4 cleavable (not treated with uPa) (bispecific antibody, human IgG1, kappa, L234A L235A)
heavy: not shown
light: MHVAQPAVVLASSRGIASFVCEYASPGKATEVRVTVLRQADSQVTEVCAATYMMGNELTFLDDSICTGTSSGNQVNLTIQGLRAMDTGLYICKVELMYPPPYYLGIGNGTQIYVIDPEEAAAKEAAAKMSGRSANADIQMTQSPSSLSASVGDRVTMTCSASSSVSYMNWYQQKPGKAPKRWIYDSSKLASGVPARFSGSGSGTDYTLTISSLQPEDFATYYCQQWSRNPPTFGGGTKLQITRTVAAPSVFIFPPSDEQLKSGTASVVCLLNNFYPREAKVQWKVDNALQSGNSQESVTEQDSKDSTYSLSSTLTLSKADYEKHKVYACEVTHQGLSSPVTKSFNRGEC
chain: not shown
notes: also called v30444
Fold wrt WT [4]: 83 fold
EC50 [7]: 100 nM
fold decrease of target binding [14]: ~80 fold

B4: Variant 32479: HA PD-1:WT PD-L1 masked aCD40 Mab, PD-L1 cleavable (not treated with uPa) (antibody, human IgG1, kappa)
heavy: not shown
light: AFTVTVPKDLYVVEYGSNMTIECKFPVEKQLDLAALIVYWEMEDKNIIQFVHGEEDLKVQHSSYRQRARLLKDQLSLGNAALQITDVKLQDAGVYRCMISYGGADYKRITVKVNAEAAAKEAAAKMSGRSANADIQMTQSPSSVSASVGDRVTITCRASQGIYSWLAWYQQKPGKAPNLLIYTASTLQSGVPSRFSGSGSGTDFTLTISSLQPEDFATYYCQQANIFPLTFGGGTKVEIKRTVAAPSVFIFPPSDEQLKSGTASVVCLLNNFYPREAKVQWKVDNALQSGNSQESVTEQDSKDSTYSLSSTLTLSKADYEKHKVYACEVTHQGLSSPVTKSFNRGEC
notes: also called v32479; untreated v32479
EC50, CD40 RGA, FcgRIIB CHOK1 (sample v32479 - uPa) [9]: 2.64 µg/mL
EC50, CD40 RGA, WT CHOK1 (sample v32479 - uPa) [9]: 44.7 µg/mL
Fold wrt WT (EC50), CD40 RGA, FcgRIIB CHOK1 (sample v32479 - uPa) [9]: 54.3 fold
Fold wrt WT (EC50), CD40 RGA, WT CHOK1 (sample v32479 - uPa) [9]: 326 fold
EC50 [10]: 14 nM
CD40 reporter gene assay, fold masking of activity [15]: 55 fold
fold reduction of binding vs unmasked v32477 [16]: 14 fold

B5: Variant 30436: WT PD-1:HA PD-L1 masked CD3 × Her2 Fab × scFv Fc, PD-1 cleavable (not treated with uPa) (bispecific antibody, human IgG1, kappa, L234A L235A)
heavy: not shown
light: AFTVTVPKDLYVVEYGSNMTIECKFPVEKQLDLAALQVFWMMEDKNIIQFVHGEEDLKVQHSSYRQRARLLKDQLSLGNAALQITDVKLQDAGVYTCLIAYKGADYKRITVKVNAEAAAKEAAAKDIQMTQSPSSLSASVGDRVTMTCSASSSVSYMNWYQQKPGKAPKRWIYDSSKLASGVPARFSGSGSGTDYTLTISSLQPEDFATYYCQQWSRNPPTFGGGTKLQITRTVAAPSVFIFPPSDEQLKSGTASVVCLLNNFYPREAKVQWKVDNALQSGNSQESVTEQDSKDSTYSLSSTLTLSKADYEKHKVYACEVTHQGLSSPVTKSFNRGEC
chain: not shown
notes: also called masked, heavy-chain-cleavable variant
binding result [17]: no binding (tested: titrated from 200 nM at a 1:3 dilution)
Fold wrt v31931 [18]: > 35 fold
Fold wrt WT [5]: 150 fold
EC50 [8]: 180 nM

B6: Variant 31931: Half-masked CD3 × Her2 Fab × scFv Fc, HA PD-L1 attached to LC (bispecific antibody, human IgG1, kappa, L234A L235A)
heavy: not shown
light: AFTVTVPKDLYVVEYGSNMTIECKFPVEKQLDLAALQVFWMMEDKNIIQFVHGEEDLKVQHSSYRQRARLLKDQLSLGNAALQITDVKLQDAGVYTCLIAYKGADYKRITVKVNAEAAAKEAAAKDIQMTQSPSSLSASVGDRVTMTCSASSSVSYMNWYQQKPGKAPKRWIYDSSKLASGVPARFSGSGSGTDYTLTISSLQPEDFATYYCQQWSRNPPTFGGGTKLQITRTVAAPSVFIFPPSDEQLKSGTASVVCLLNNFYPREAKVQWKVDNALQSGNSQESVTEQDSKDSTYSLSSTLTLSKADYEKHKVYACEVTHQGLSSPVTKSFNRGEC
chain: not shown
IC50 [19]: 6 nM
EC50 [20]: 5.8 nM
Fold wrt WT [5]: 4.4 fold
Fold wrt v31931 [21]: 1 fold
EC50 [8]: 5.3 nM

B7: Variant 30436 treated with uPa (+uPa): PD-1 moiety cleaved from the heavy chain, HA PD-L1 left on the light chain (bispecific antibody)
heavy: not shown
light: AFTVTVPKDLYVVEYGSNMTIECKFPVEKQLDLAALQVFWMMEDKNIIQFVHGEEDLKVQHSSYRQRARLLKDQLSLGNAALQITDVKLQDAGVYTCLIAYKGADYKRITVKVNAEAAAKEAAAKDIQMTQSPSSLSASVGDRVTMTCSASSSVSYMNWYQQKPGKAPKRWIYDSSKLASGVPARFSGSGSGTDYTLTISSLQPEDFATYYCQQWSRNPPTFGGGTKLQITRTVAAPSVFIFPPSDEQLKSGTASVVCLLNNFYPREAKVQWKVDNALQSGNSQESVTEQDSKDSTYSLSSTLTLSKADYEKHKVYACEVTHQGLSSPVTKSFNRGEC
chain: not shown
EC50 [22]: 67 nM
Fold wrt WT [5]: 5.1 fold
EC50 [8]: 6.2 nM
fold of the one sided mask control 31931 [23]: 12 fold
